These results are taken from patent publication US20160046680A1, “RADIOTRACER IMAGING USING SODIUM IODIDE SYMPORTER POLYPEPTIDES” (MAYO FOUNDATION FOR MEDICAL EDUCATION AND RESEARCH, priority 2013, published 2016).

“Also recorded” adds a separate entry of the source.

One data set concerns NIS expressing cells. The settings on record: cited from earlier work.
In data set [1] the test system is endogenous NIS expressing organs (thyroid and stomach) and heterologous NIS expressing tumor cells. As to the kind of experiment: Dual isotope SPECT/CT imaging of nude mice with BXPC-3-hNIS tumors. The conditions noted are these: four hours after i.p. administration of 250 μCi each. As to the method: FIG. 6. SPECT/CT dual isotope imaging of nude mice implanted with SQ BXPX-3-hNIS tumors. Animals were injected i.p with 250 μCi ^125I and 250 μCi ^99mTc and imaged four hours later. Images were processed using Vivo Quant software. The scale was adjusted manually to get minimal yellow in the tissues.
The stomach and thyroid signals were subtract from the SPECT dataset (FIG. 5). In this experiment, nude female mice (5-week of age) were injected with 3×10^6 BXPC-3-hNIS cells. When tumors reached a diameter of 1 cm, mice were injected I.P. with ^125I sodium iodide (250 μCi) and/or ^99mTc-pertechneate (250 μCi). Four hours post isotope administration, SPECT/CT data were acquired with U-SPECT-II (MiLabs). […] Radioiodide thyroid signal subtraction was performed by normalizing the ^125I SPECT data to thyroid tissue on the ^99mTc SPECT data using the image arithmetic tools available in PMOD image fusion software. This was performed in three steps by (1) calculating the normalization factor (i.e., the inverse ratio between the maximum voxel value corresponding to the thyroid tissue on the ^125I SPECT and the maximum voxel value corresponding to the thyroid tissue on the ^99mTc SPECT data set), (2) multiplying each voxel in the ^125I SPECT dataset by this normalization factor, and (3) subtracting the normalized ^125I SPECT dataset from ^99mTc SPECT data set to generate a thyroid subtraction SPECT dataset (FIG. 5C). Similarly, ^99mTc stomach signal subtraction was performed by (1) calculating the normalization factor which in this case is the inverse ratio of the maximum voxel value corresponding to the stomach tissue on the ^99mTc SPECT to the maximum voxel value corresponding to the stomach tissue in the ^125I SPECT data set, (2) multiplying each voxel in the ^99mTc SPECT dataset by this normalization factor, and (3) subtracting the normalized ^99mTc SPECT dataset from ^125I SPECT data set to generate a stomach subtraction SPECT dataset (FIG. 5B).

Data set [2] deals with stomach signal from NIS polypeptide-mediated uptake of radioisotopes. The conditions noted are these: mouse fed by gavage, then imaged; NIS transduced liver.
Description: FIG. 2B is a photograph of the same mouse fed oral contrast agent.
The subject of another data set is Mel624 cells. As to the kind of experiment: Radiotracer uptake assay in Mel624 cells stably expressing NIS polypeptides. The data set is classed as cell-based. The conditions noted are these: for Uptake of pertechnetate (Technetium-99m) / Uptake of radioiodide (Iodine-125): Mel624 cells expressing the NIS polypeptide, 1 hour at 37° C., +/- 300 μM KClO4. As to the method:
Mel624 cells stably expressing a wild-type human NIS polypeptide (Mel-NIS) or one of two mutant NIS polypeptides (Mel-NIS-93E or Mel-NIS-93Q) were plated in 96-well plates at a density that would lead them to confluency on the day of the uptake assay. 1×Hank's balanced salt solution with calcium, magnesium (HBSS) (Cellgro) and 1 mM HEPES was adjusted to pH 7.3 using KOH (HBBS-HEPES) on the day of the assay. Culture medium was removed from the cells, and 150 μL of HBSS-HEPES+/−300 μM KClO4 was added to the wells. The cells were incubated for 10 minutes at room temperature prior to the addition of radiotracer. Radiotracers, ^125I and ^99mTc, were diluted in HBSS-HEPES to about 70,000 to 100,000 CPM/25 μL (CPM, counts per minute). 25 μL of radiotracer was added to the cells in HBSS-HEPES+/−KClO4, and the cells were incubated at 37° C. for 1 hour. The cells were then washed twice with cold HBSS-HEPES buffer and lysed to release the intracellular radiotracer by adding 200 μL 1M NaOH. Lysates were transferred to strip tubes and quantified using a gamma counter.

The next data set has as its system Hela-YFP-IS cells. As to the kind of experiment: Non-radioactive YFP-H148Q/I152L in vitro uptake assay. The data set is classed as cell-based. An excerpt:
FIG. 11 contains graphs plotting the relative fluorescence Hela-YFP-IS cells expressing no NIS (i) or the indicated mutant NIS (ii-viii) after treatment with I^−, ReO4^−, BF4^−, and ClO4^−. These graphs show the concentration dependence of I^−, ReO4^−, BF4^−, and ClO4^− induced changes in YFP-H148Q/I152L fluorescence in Hela-YFP-IS cells expressing the indicated NIS mutants.
Using an anti-HA-tag-Alexa-Fluor-647 monoclonal antibody, cells expressing the NIS mutants on the cell surface were labeled and quantified using flow cytometry. […] A non-radioactive YFP-H148Q/I152L in vitro uptake assay was used to monitor uptake of NIS substrates: […], […], BF4^−, and ClO4^−. The NIS mutants were co-expressed with YFP-H148Q/I152L, which decreased in fluorescence following an interaction with halides. […] This was particularly so at the lowest substrate concentrations, which are of clinical relevance as radiotracers used for imaging are administered to animals and humans in trace amounts. At 1-5 μM concentrations of substrate, NIS-Q72N transported less iodide but more ClO4^− into the cells.

[3] abbreviates: 1-5 μM concentrations of substrate, YFP-H148Q/I152L fluorescence.

Regarding `[O-][Cl+3]([O-])([O-])O` [perchlorate], the “Efficiency of concentration in NIS expressing cells compared to iodide anions (less efficiently)” value in the data set with NIS expressing cells was 10 fold.
Regarding `[O]=[99Tc](=[O])(=[O])[O-]` [^99mTc, ^99mTc-pertechneate], in data set [1], the “Accumulation in BXPC-3-hNIS tumor cells” value was “accumulate both isotopes to similar concentrations” and the “Organ that preferentially accumulates the isotope” value was “stomach preferentially accumulates”.
`O=S(=O)([O-])[O-].[Ba+2]` [barium sulfate]: the “Isotope signals from the stomach” value in data set [2] is given as “reduced isotope signals from the stomach”.
In the case of `[125I-].[Na+]` [^125I, ^125I sodium iodide], in data set [1], the “Accumulation in BXPC-3-hNIS tumor cells” value was “accumulate both isotopes to similar concentrations” and the “Organ that preferentially accumulates the isotope” value was “thyroid preferentially accumulates”.

B1: NIS-93E: mutant human sodium iodide symporter polypeptide, human NIS-93E (SEQ ID NO:1) (protein, listed as Homo sapiens)
chain: MEAVETGERPTFGAWDYGVFALMLLVSTGIGLWVGLARGGQRSAEDFFTGGRRLAALPVGLSLSASFMSAVQVLGVPSEAYRYGLKFLWMCLEQLLNSVLTALLFMPVFYRLGLTSTYEYLEMRFSRAVRLCGTLQYIVATMLYTGIVIYAPALILNQVTGLDIWASLLSTGIICTFYTAVGGMKAVVWTDVFQVVVMLSGFWVVLARGVMLVGGPRQVLTLAQNHSRINLMDFNPDPRSRYTFWTFVVGGTLVWLSMYGVNQAQVQRYVACRTEKQAKLALLINQVGLFLIVSSAACCGIVMFVFYTDCDPLLLGRISAPDQYMPLLVLDIFEDLPGVPGLFLACAYSGTLSTASTSINAMAAVTVEDLIKPRLRSLAPRKLVIISKGLSLIYGSACLTVAALSSLLGGGVLQGSFTVMGVISGPLLGAFILGMFLPACNTPGVLAGLGAGLALSLWVALGATLYPPSEQTMRVLPSSAARCVALSVNASGLLDPALLPANDSSRAPSSGMDASRPALADSFYAISYLYYGALGTLTTVLCGALISCLTGPTKRSTLAPGLLWWDLARQTASVAPKEEVAILDDNLVKGPEELPTGNKKPPGFLPTNEDRLFFLGQKELEGAGSWTPCVGHDGGRDQQETNL
Regarding B1, in the data set on Mel624 cells, the “Efficiency of concentrating iodide relative to TcO4” value is “concentrate iodide with greater efficiency than TcO4”, the “Uptake of pertechnetate (Technetium-99m)” value is “minimal or no uptake of pertechnetate; also recorded: not pertechnetate” and the “Uptake of radioiodide (Iodine-125)” value is “can uptake radioiodide; also recorded: capable of up-taking radioiodide”. The “Concentration of Iodine-125 uptake in tumor cells as compared to non-mutated NIS (NIS WT)” value with Mel624 cells (FIGS. 1A and 1B) is given as “decrease the concentration of Iodine-125 uptake”. For the same molecule, in the data set on Mel624 cells (listed as NIS-G93E), the “Uptake of pertechnetate (Technetium-99m)” value is reported as “not Technetium-99m” and the “Uptake of radioiodide (Iodine-125)” value is given as “transport selectively Iodine-125; also recorded: selectively transports Iodine-125”.

B2: NIS-Q72N: human NIS with Q72 mutated to N, N-terminal HA-tag (protein, UniProt Q92911 1-643, looked up, variant Q72N)
Sodium/iodide cotransporter: MEAVETGERPTFGAWDYGVFALMLLVSTGIGLWVGLARGGQRSAEDFFTGGRRLAALPVGLSLSASFMSAVNVLGVPSEAYRYGLKFLWMCLGQLLNSVLTALLFMPVFYRLGLTSTYEYLEMRFSRAVRLCGTLQYIVATMLYTGIVIYAPALILNQVTGLDIWASLLSTGIICTFYTAVGGMKAVVWTDVFQVVVMLSGFWVVLARGVMLVGGPRQVLTLAQNHSRINLMDFNPDPRSRYTFWTFVVGGTLVWLSMYGVNQAQVQRYVACRTEKQAKLALLINQVGLFLIVSSAACCGIVMFVFYTDCDPLLLGRISAPDQYMPLLVLDIFEDLPGVPGLFLACAYSGTLSTASTSINAMAAVTVEDLIKPRLRSLAPRKLVIISKGLSLIYGSACLTVAALSSLLGGGVLQGSFTVMGVISGPLLGAFILGMFLPACNTPGVLAGLGAGLALSLWVALGATLYPPSEQTMRVLPSSAARCVALSVNASGLLDPALLPANDSSRAPSSGMDASRPALADSFYAISYLYYGALGTLTTVLCGALISCLTGPTKRSTLAPGLLWWDLARQTASVAPKEEVAILDDNLVKGPEELPTGNKKPPGFLPTNEDRLFFLGQKELEGAGSWTPCVGHDGGRDQQETNL
modifications: N-terminal HA tag
Turning to B2, in the data set with Hela-YFP-IS cells (setting [3]), the “ClO4- transported into the cells compared to wild-type NIS” value is listed as “more ClO4^−” and the “Iodide transported into the cells compared to wild-type NIS” value is “less iodide”. In addition, in the data set with Hela-YFP-IS cells (I-, ReO4-, BF4-, ClO4-, FIGS. 11 and 12), the “Substrate transport profile compared to wild-type NIS” value was “altered substrate transport profile”.

B3: wild-type human NIS polypeptide: wild-type human sodium iodide symporter polypeptide (protein, UniProt Q92911 1-643, looked up)
Sodium/iodide cotransporter: MEAVETGERPTFGAWDYGVFALMLLVSTGIGLWVGLARGGQRSAEDFFTGGRRLAALPVGLSLSASFMSAVQVLGVPSEAYRYGLKFLWMCLGQLLNSVLTALLFMPVFYRLGLTSTYEYLEMRFSRAVRLCGTLQYIVATMLYTGIVIYAPALILNQVTGLDIWASLLSTGIICTFYTAVGGMKAVVWTDVFQVVVMLSGFWVVLARGVMLVGGPRQVLTLAQNHSRINLMDFNPDPRSRYTFWTFVVGGTLVWLSMYGVNQAQVQRYVACRTEKQAKLALLINQVGLFLIVSSAACCGIVMFVFYTDCDPLLLGRISAPDQYMPLLVLDIFEDLPGVPGLFLACAYSGTLSTASTSINAMAAVTVEDLIKPRLRSLAPRKLVIISKGLSLIYGSACLTVAALSSLLGGGVLQGSFTVMGVISGPLLGAFILGMFLPACNTPGVLAGLGAGLALSLWVALGATLYPPSEQTMRVLPSSAARCVALSVNASGLLDPALLPANDSSRAPSSGMDASRPALADSFYAISYLYYGALGTLTTVLCGALISCLTGPTKRSTLAPGLLWWDLARQTASVAPKEEVAILDDNLVKGPEELPTGNKKPPGFLPTNEDRLFFLGQKELEGAGSWTPCVGHDGGRDQQETNL
Consider B3, for which, in the data set on Mel624 cells, the “Uptake of pertechnetate (Technetium-99m)” value is “Substantial uptake” and the “Uptake of radioiodide (Iodine-125)” value is recorded as “Substantial uptake”.
